{"source": "paper PMC6771872", "about": "“Fast‐acting insulin aspart in people with type 2 diabetes: Earlier onset and greater initial exposure and glucose‐lowering effect compared with insulin aspart” (Diabetes, Obesity & Metabolism, 2019)", "type_in_all_cases": "in vivo, human", "key": {"[1]": {"system": "people with type 2 diabetes", "assay": "Safety assessments (adverse events, hypoglycaemic episodes, injection site reactions)", "conditions": "single s.c. 0.3 U/kg", "description": "Safety assessments included adverse events (AEs), hypoglycaemic episodes, injection site reactions, laboratory safety measures, physical examination, vital signs and ECG. AEs were defined as treatment‐emergent if they had onset within the period from time of trial product administration until 7 days later. Hypoglycaemic episodes were classified according to the American Diabetes Association12 and in addition defined as “confirmed” if documented by PG <3.1 mmol/L with or without symptoms consistent with hypoglycaemia. Hypoglycaemic episodes were defined as treatment‐emergent if they had onset between the time of trial product administration and the subsequent administration of any insulin; however, these should occur no longer than 16 hours after trial product administration."}, "[2]": {"assay": "Serum IAsp pharmacokinetics after single subcutaneous dose (IAsp-specific ELISA)", "conditions": "people with T2D, single s.c. 0.3 U/kg, 59 IAsp", "description": "At the two dosing visits, participants received single dosing of 0.3 U/kg faster aspart (100 U/mL; Novo Nordisk, Bagsværd, Denmark) or IAsp (NovoRapid® 100 U/mL; Novo Nordisk) in a randomized sequence. Both trial products were provided in blinded PDS290 pen‐injector prefilled pens (Novo Nordisk) and administered subcutaneously in a lifted skin fold of the lower abdominal wall above the inguinal area. Use of current insulin was terminated in due time to allow washout before faster aspart and IAsp administration.\nBlood sampling for pharmacokinetics was performed frequently from 2 minutes prior to dosing until 12 hours post‐dose (Table S2 in Appendix S1).\nA validated IAsp‐specific enzyme‐linked immunosorbent assay with a lower limit of quantification (LLOQ) of 10 pmol/L was used to measure free serum IAsp concentrations following polyethylene glycol precipitation.\n(§1) All pharmacokinetic and glucose infusion rate (GIR) endpoints to assess onset of exposure and glucose‐lowering effect, initial IAsp exposure and glucose‐lowering effect, offset of exposure and glucose‐lowering effect, and overall exposure and glucose‐lowering effect were defined and derived as previously described.5 In a blinded review of pharmacokinetic profiles, it was observed that selected profiles had pre‐dose values above the LLOQ and stayed above the LLOQ for the entire sampling period. It was therefore decided to baseline‐correct these profiles using a baseline value derived as the mean of all pre‐dose samples. After baseline correction, all pre‐dose values and negative values were set to zero. All pharmacokinetic endpoints for the baseline‐corrected profiles were derived in the same way as those for the non‐baseline‐corrected profiles."}, "[3]": {"system": "people with type 2 diabetes", "assay": "Suppression of serum free fatty acid (FFA) concentration after dosing", "conditions": "people with T2D, single s.c. 0.3 U/kg", "method": "Serum free fatty acid (FFA) concentrations were measured using a Wako NEFA assay (Wako Diagnostics, Mountain View, California), performed on a Roche Cobas C501 analyser (Roche Diagnostics GmbH, Mannheim, Germany).\nThe suppression of serum FFA concentration initially after dosing was determined by calculating the area over the baseline‐corrected serum FFA concentration‐time curve during the first hour (ΔAOCFFA,0‐1 h) and the first 2 hours (ΔAOCFFA,0‐2 h) as well as the time to reach 50% of the maximum FFA decline in the initial part of the FFA profile (t50% max FFA decline). Furthermore, the minimum FFA concentration (FFAmin) was derived.\nStatistical analyses were performed using SAS version 9.4 (SAS Institute, Cary, North Carolina). All endpoints were compared between faster aspart and IAsp using a linear mixed model, with treatment and period as fixed effects and participant as a random effect. The P value for the two‐sided test of no treatment difference using a significance level of 5% was estimated from the model. For FFA endpoints, baseline FFA was included as a covariate. […] Least squares means for each treatment, treatment ratios and 95% confidence intervals (CIs) were calculated on the original scale. All other endpoints were analysed on a linear scale: least squares means for each treatment, treatment differences and 95% CIs were estimated. Treatment ratios and 95% CIs were determined according to Fieller's method.14"}, "[4]": {"system": "people with type 2 diabetes", "assay": "Euglycaemic glucose clamp, glucose infusion rate (glucose-lowering effect)", "conditions": "people with T2D, single s.c. 0.3 U/kg, n = 56 faster aspart, 59 IAsp", "method": "Participants arrived at the clinical site at 4:30 PM the day before dosing, were served a standardized meal and started fasting from 7:00 PM. In order to assess the pharmacodynamics of faster aspart and IAsp, a euglycaemic glucose clamp was conducted with an overnight run‐in period starting at 10:00 PM. Participants received a variable intravenous infusion of human insulin [40 IU Actrapid® 100 IU/mL (Novo Nordisk) in 99.6 mL saline] or 20% glucose to obtain the plasma glucose (PG) target concentration of 5.0 mmol/L. The trial product was administered between 8:00 AM and 10:00 AM the next morning after PG had stabilized for ≥1 hour with minimum insulin infusion and no glucose infusion. At the time of dosing, any infusion of intravenous insulin was terminated. After PG had declined by 0.3 mmol/L (defined as onset of action), a variable intravenous glucose infusion was initiated to keep PG at the target throughout the clamp. The clamp continued for up to 12 hours after dosing, but was terminated if PG was consistently ≥11.1 mmol/L, with no requirement for intravenous glucose infusion during the previous 30 minutes. The individual clamps were performed with similar high quality across both treatments (Figure S1 and Table S1 in Appendix S1).11\nMeasurement of PG concentrations during the glucose clamp was performed with a SuperGL 2 glucose analyser (Dr Müller Gerätebau GmbH, Freital, Germany) using an electrochemical method.\nas §1"}, "[5]": {"conditions": "LS mean ± SE, n = 56 faster aspart, 58 IAsp"}, "[6]": {"conditions": "euglycaemic clamp, LS mean ± SE"}}, "data": [{"substance": "insulin aspart [IAsp]", "values": [{"measurement": "Injection site reactions or treatment-emergent hypoglycaemic episodes", "setting": "[1]; people with T2D", "result": "no injection site reactions or treatment‐emergent hypoglycaemic episodes were reported"}, {"measurement": "Tolerability", "setting": "[1]; people with T2D", "result": "well tolerated"}, {"measurement": "Number of treatment-emergent AEs", "setting": "[1]; safety analysis set 61 participants with T2D, onset within 7 days of dosing", "result": 11}, {"measurement": "tLate 50% Cmax (time to 50% of maximum IAsp concentration in the late part of the PK profile)", "setting": "[2]; offset of exposure, LS mean, n = 56 faster aspart", "result": 237.8, "unit": "min"}, {"measurement": "Onset of appearance", "setting": "[2]; free serum IAsp by ELISA, LS mean ± SE, n = 56 faster aspart", "result": "4.4 ± 0.3", "unit": "min"}, {"measurement": "AUCIAsp,0-t (total IAsp exposure)", "setting": "[2]; sampling until 12 hours, LS mean, n = 56 faster aspart", "result": 1.403, "unit": "nM·h"}, {"measurement": "tmax (time to maximum IAsp concentration)", "setting": "[2]; LS mean ± SE, n = 55 faster aspart", "result": "1.45 ± 0.0867", "unit": "h"}, {"measurement": "tEarly 50% Cmax (time to 50% of maximum IAsp concentration in the initial part of the PK profile)", "setting": "[2]; LS mean ± SE, n = 56 faster aspart", "result": "27.9 ± 1.0", "unit": "min"}, {"measurement": "AUCIAsp,0-15min LS Mean", "setting": "[2]; LS mean, n = 56 faster aspart", "result": 0.0074, "unit": "nM·h"}, {"measurement": "AUCIAsp,0-1h LS Mean", "setting": "[2]; LS mean, n = 56 faster aspart", "result": 0.189, "unit": "nM·h"}, {"measurement": "AUCIAsp,0-1.5h LS Mean", "setting": "[2]; LS mean, n = 56 faster aspart", "result": 0.355, "unit": "nM·h"}, {"measurement": "AUCIAsp,0-2h LS Mean", "setting": "[2]; LS mean, n = 56 faster aspart", "result": 0.516, "unit": "nM·h"}, {"measurement": "AUCIAsp,2-t (partial area under the serum IAsp profile from 2 hours)", "setting": "[2]; LS mean, n = 56 faster aspart", "result": 0.841, "unit": "nM·h"}, {"measurement": "Cmax (maximum IAsp concentration)", "setting": "[2]; LS mean, n = 56 faster aspart", "result": 0.384, "unit": "nM"}, {"measurement": "AUCIAsp,0-30min LS Mean", "setting": "[2]; primary endpoint, LS mean, n = 56 faster aspart", "result": 0.042, "unit": "nM·h"}, {"measurement": "t50% max FFA decline (time to reach 50% of the maximum decline in FFA)", "setting": "[3]; [5]", "result": "50.0 ± 2.3", "unit": "min"}, {"measurement": "ΔAOCFFA,0-1 h (area over the baseline-corrected FFA curve, first hour)", "setting": "[3]; [5]", "result": "0.09 ± 0.01", "unit": "mmol·h/L"}, {"measurement": "ΔAOCFFA,0-2 h (area over the baseline-corrected FFA curve, first 2 hours)", "setting": "[3]; [5]", "result": "0.38 ± 0.02", "unit": "mmol·h/L"}, {"measurement": "Mean minimum FFA concentration (FFAmin)", "setting": "[3]; mean ± spread as printed", "result": "0.08 ± 0.05", "unit": "mmol/L"}, {"measurement": "tLate 50% GIRmax (time to 50% of maximum GIR in the late part of the GIR profile)", "setting": "[4]; offset of glucose-lowering effect, LS mean", "result": 297.7, "unit": "min"}, {"measurement": "AUCGIR,0-t (total glucose-lowering effect)", "setting": "[4]; clamp up to 12 hours, LS mean", "result": 904, "unit": "mg/kg"}, {"measurement": "Onset of action (PG decline by 0.3 mmol/L)", "setting": "[4]; euglycaemic clamp target 5.0 mmol/L, LS mean ± SE", "result": "31.3 ± 1.4", "unit": "min"}, {"measurement": "tEarly 50% GIRmax (time to 50% of maximum GIR in the initial part of the GIR profile)", "setting": "[4]; [6]", "result": "51.1 ± 2.3", "unit": "min"}, {"measurement": "tGIRmax (time to maximum glucose infusion rate)", "setting": "[4]; [6]", "result": "155.6 ± 8.7", "unit": "min"}, {"measurement": "AUCGIR,0-30min LS Mean", "setting": "[4]; euglycaemic clamp, LS mean", "result": 7.0, "unit": "mg/kg"}, {"measurement": "AUCGIR,0-1h LS Mean", "setting": "[4]; euglycaemic clamp, LS mean", "result": 67, "unit": "mg/kg"}, {"measurement": "AUCGIR,0-1.5h LS Mean", "setting": "[4]; euglycaemic clamp, LS mean", "result": 127, "unit": "mg/kg"}, {"measurement": "AUCGIR,0-2h LS Mean", "setting": "[4]; euglycaemic clamp, LS mean", "result": 210, "unit": "mg/kg"}, {"measurement": "AUCGIR,2-t (partial area under the GIR profile from 2 hours)", "setting": "[4]; LS mean", "result": 681, "unit": "mg/kg"}, {"measurement": "GIRmax (maximum glucose infusion rate)", "setting": "[4]; LS mean", "result": 3.9, "unit": "mg/kg/min"}]}]}
